Laboratory results as given in article doi:10.1101/2023.06.15.545061 (2023).
Each block holds one binder with its values, some of them ahead of it.

Experiments:
[1] = biological target: T1, biotinylated 10-mer C-terminal PBM peptide of DGKζ (human, UniProt Q13574, biotin attached to the N-terminus via a trioxatridecan-succinamic acid (ttds) linker); assay: nHU-MS, printed as pKapp 5.01
[2] = biological target: T1, biotinylated 10-mer C-terminal PBM …; assay: nHU-MS, printed as pKapp 4.98
[3] = biological target: T1, biotinylated 10-mer C-terminal PBM …; assay: nHU-MS, printed as pKapp 5.71
[4] = biological target: T1, biotinylated 10-mer C-terminal PBM …; assay: nHU-MS, printed as pKapp 4.96

T1 sequence (Q13574 whole entry, looked up, tested part not stated): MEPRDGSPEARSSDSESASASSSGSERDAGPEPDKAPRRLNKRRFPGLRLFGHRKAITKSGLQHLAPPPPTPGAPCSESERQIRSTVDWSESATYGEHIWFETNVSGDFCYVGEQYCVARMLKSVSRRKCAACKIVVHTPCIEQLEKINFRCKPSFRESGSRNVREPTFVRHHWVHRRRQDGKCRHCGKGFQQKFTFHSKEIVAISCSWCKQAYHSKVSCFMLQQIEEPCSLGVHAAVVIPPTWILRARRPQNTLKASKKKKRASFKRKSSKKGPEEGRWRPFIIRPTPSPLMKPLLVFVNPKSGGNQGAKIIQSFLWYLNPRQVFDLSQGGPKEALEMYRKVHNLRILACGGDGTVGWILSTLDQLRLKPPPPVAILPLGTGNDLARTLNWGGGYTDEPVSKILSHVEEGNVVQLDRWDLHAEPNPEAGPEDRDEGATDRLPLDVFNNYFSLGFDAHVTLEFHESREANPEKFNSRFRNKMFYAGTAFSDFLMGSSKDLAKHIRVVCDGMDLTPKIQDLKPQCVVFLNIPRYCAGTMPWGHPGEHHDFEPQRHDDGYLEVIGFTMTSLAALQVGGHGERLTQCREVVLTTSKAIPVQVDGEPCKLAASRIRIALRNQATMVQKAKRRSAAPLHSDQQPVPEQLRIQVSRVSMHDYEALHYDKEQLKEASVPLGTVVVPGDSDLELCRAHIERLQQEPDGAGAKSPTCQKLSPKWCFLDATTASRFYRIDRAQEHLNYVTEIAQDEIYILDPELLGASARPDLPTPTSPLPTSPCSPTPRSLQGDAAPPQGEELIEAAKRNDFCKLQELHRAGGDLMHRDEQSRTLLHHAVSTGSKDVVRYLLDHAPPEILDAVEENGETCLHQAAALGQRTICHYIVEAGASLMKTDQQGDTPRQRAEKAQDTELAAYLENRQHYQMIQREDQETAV

Kd [3]: 1.95 µM
B3: MAGI3 (natural protein)
chain: MSKTLKKKKHWLSKVQECAVSWAGPPGDFGAEIRGGAERGEFPYLGRLREEPGGGTCCVVSGKAPSPGDVLLEVNGTPVSGLTNRDTLAVIRHFREPIRLKTVKPGKVINKDLRHYLSLQFQKGSIDHKLQQVIRDNLYLRTIPCTTRAPRDGEVPGVDYNFISVEQFKALEESGALLESGTYDGNFYGTPKPPAEPSPFQPDPVDQVLFDNEFDAESQRKRTTSVSKMERMDSSLPEEEEDEDKEAINGSGNAENRERHSESSDWMKTVPSYNQTNSSMDFRNYMMRDETLEPLPKNWEMAYTDTGMIYFIDHNTKTTTWLDPRLCKKAKAPEDCEDGELPYGWEKIEDPQYGTYYVDHLNQKTQFENPVEEAKRKKQLGQVEIGSSKPDMEKSHFTRDPSQLKGVLVRASLKKSTMGFGFTIIGGDRPDEFLQVKNVLKDGPAAQDGKIAPGDVIVDINGNCVLGHTHADVVQMFQLVPVNQYVNLTLCRGYPLPDDSEDPVVDIVAATPVINGQSLTKGETCMNPQDFKPGAMVLEQNGKSGHTLTGDGLNGPSDASEQRVSMASSGSSQPELVTIPLIKGPKGFGFAIADSPTGQKVKMILDSQWCQGLQKGDIIKEIYHQNVQNLTHLQVVEVLKQFPVGADVPLLILRGGPPSPTKTAKMKTDKKENAGSLEAINEPIPQPMPFPPSIIRSGSPKLDPSEVYLKSKTLYEDKPPNTKDLDVFLRKQESGFGFRVLGGDGPDQSIYIGAIIPLGAAEKDGRLRAADELMCIDGIPVKGKSHKQVLDLMTTAARNGHVLLTVRRKIFYGEKQPEDDSSQAFISTQNGSPRLNRAEVPARPAPQEPYDVVLQRKENEGFGFVILTSKNKPPPGVIPHKIGRVIEGSPADRCGKLKVGDHISAVNGQSIVELSHDNIVQLIKDAGVTVTLTVIAEEEHHGPPSGTNSARQSPALQHRPMGQSQANHIPGDRSALEGEIGKDVSTSYRHSWSDHKHLAQPDTAVISVVGSRHNQNLGCYPVELERGPRGFGFSLRGGKEYNMGLFILRLAEDGPAIKDGRIHVGDQIVEINGEPTQGITHTRAIELIQAGGNKVLLLLRPGTGLIPDHGDWDINNPSSSNVIYDEQSPLPPSSHFASIFEESHVPVIEESLRVQICEKAEELKDIVPEKKSTLNENQPEIKHQSLLQKNVSKRDPPSSHGHSNKKNLLKVENGVTRRGRSVSPKKPASQHSEEHLDKIPSPLKNNPKRRPRDQSLSPSKGENKSCQVSTRAGSGQDQCRKSRGRSASPKKQQKIEGSKAPSNAEAKLLEGKSRRIAGYTGSNAEQIPDGKEKSDVIRKDAKQNQLEKSRTRSPEKKIKRMVEKSLPSKMTNKTTSKEVSENEKGKKVTTGETSSSNDKIGENVQLSEKRLKQEPEEKVVSNKTEDHKGKELEAADKNKETGRFKPESSSPVKKTLITPGPWKVPSGNKVTGTIGMAEKRQ

Kd [4]: 11 µM
B4: SYNJ2BP (natural protein)
chain: MNGRVDYLVTEEEINLTRGPSGLGFNIVGGTDQQYVSNDSGIYVSRIKENGAAALDGRLQEGDKILSVNGQDLKNLLHQDAVDLFRNAGYAVSLRVQHRLQVQNGPIGHRGEGDPSGIPIFMVLVPVFALTMVAAWAFMRYRQQL

Second part, the binder before the results:

B1: LIN7C (natural protein)
chain: MAALGEPVRLERDICRAIELLEKLQRSGEVPPQKLQALQRVLQSEFCNAVREVYEHVYETVDISSSPEVRANATAKATVAAFAASEGHSHPRVVELPKTEEGLGFNIMGGKEQNSPIYISRIIPGGIADRHGGLKRGDQLLSVNGVSVEGEHHEKAVELLKAAQGKVKLVVRYTPKVLEEMESRFEKMRSAKRRQQT
Kd [1]: 9.77 µM

B2: CASK (natural protein)
chain: MADDDVLFEDVYELCEVIGKGPFSVVRRCINRETGQQFAVKIVDVAKFTSSPGLSTEDLKREASICHMLKHPHIVELLETYSSDGMLYMVFEFMDGADLCFEIVKRADAGFVYSEAVASHYMRQILEALRYCHDNNIIHRDVKPHCVLLASKENSAPVKLGGFGVAIQLGESGLVAGGRVGTPHFMAPEVVKREPYGKPVDVWGCGVILFILLSGCLPFYGTKERLFEGIIKGKYKMNPRQWSHISESAKDLVRRMLMLDPAERITVYEALNHPWLKERDRYAYKIHLPETVEQLRKFNARRKLKGAVLAAVSSHKFNSFYGDPPEELPDFSEDPTSSGLLAAERAVSQVLDSLEEIHALTDCSEKDLDFLHSVFQDQHLHTLLDLYDKINTKSSPQIRNPPSDAVQRAKEVLEEISCYPENNDAKELKRILTQPHFMALLQTHDVVAHEVYSDEALRVTPPPTSPYLNGDSPESANGDMDMENVTRVRLVQFQKNTDEPMGITLKMNELNHCIVARIMHGGMIHRQGTLHVGDEIREINGISVANQTVEQLQKMLREMRGSITFKIVPSYRTQSSSCERDSPSTSRQSPANGHSSTNNSVSDLPSTTQPKGRQIYVRAQFEYDPAKDDLIPCKEAGIRFRVGDIIQIISKDDHNWWQGKLENSKNGTAGLIPSPELQEWRVACIAMEKTKQEQQASCTWFGKKKKQYKDKYLAKHNAVFDQLDLVTYEEVVKLPAFKRKTLVLLGAHGVGRRHIKNTLITKHPDRFAYPIPHTTRPPKKDEENGKNYYFVSHDQMMQDISNNEYLEYGSHEDAMYGTKLETIRKIHEQGLIAILDVEPQALKVLRTAEFAPFVVFIAAPTITPGLNEDESLQRLQKESDILQRTYAHYFDLTIINNEIDETIRHLEEAVELVCTAPQWVPVSWVY
Kd [2]: 10.5 µM
